According to patent US7041283B1, “Methods of using immunophilin binding drugs to improve integration and survival of neuronal cell transplants” (University of Pittsburgh-Of the Commonwealth System of …, priority 2001, dated 2006):

B1: BDNF: brain-derived neurotrophic factor (Promega), neurotrophic protein (protein, UniProt P23560 129-247, looked up)
Neurotrophic factor BDNF: HSDPARRGELSVCDSISEWVTAADKKTAVDMSGGTVTVLEKVPVSKGQLKQYFYETKCNPMGYTKEGCRGIDKRHWNSQCRTTQSYVRALTMDSKKRIGWRFIRIDTSCVCTLTIKRGR
modifications: Neurotrophic factor BDNF
notes: brain-derived neurotrophic factor (Promega), neurotrophic protein

Tested on: second trimester human fetal neuroglial cultures
Experiment: Second trimester human fetal neuroglial cultures treated with FK506 and/or BDNF; MAP-2/GFAP immunostaining and propidium iodide cell counts by laser confocal microscopy
Type: cell-based
Procedure: Surgical pathology fetal specimens were collected and processed in accordance with the University of Pittsburgh Human Tissue Committee guidelines. Human telencephalic tissues (18-21 weeks of gestation) were collected and placed in DMEM medium (Life Technologies Inc., Grand Island, N.Y.). […] Tissue processing followed a modified mouse brain dissociation protocol. Within 1 hour of collection, the brain material was placed in Ca^++-and Mg^++-free DPBS (Life Technologies), cleaned of meninges, rinsed and minced. Tissue fragments were incubated in 0.05% trypsin-EDTA with additives (Life Technologies) for 5 min at 37° C. and further dissociated. Trypsin inhibitor (10 mg/ml; Sigma, St. Louis, Mo.) was subsequently added, followed by centrifugation for 5 min at 250×g. After filtering through 70 μm nylon-mesh cell strainers (Becton Dickinson, Franklin Lakes, N.J.), the cell suspension was cleaned by gradient centrifugation through an 8% BSA (Sigma) layer (250×g, 10 min). A second filtering was performed using 70 μm and 40 μm nylon-mesh cell strainers (Becton Dickinson). The single cell suspension was counted on a hemocytometer using trypan blue exclusion, brought to a final density of 10^6 cells/ml and plated on poly-l-ornithine (Sigma) and laminin (Life Technologies) coated 12 mm glass coverslips (Fisher, Pittsburgh, PA) on 24-well plates (Becton Dickinson).
Throughout the experiments standard tissue culture techniques were used, in combination with the drug protocol. More specifically, cultures were incubated in 10% CO2 at 37° C. and fed every other day for 1, 5, 12, or 21 days with fresh NPMM (Bio Whittaker, San Diego, Calif.), followed by NPMM with or without various concentrations of FK506 (provided by Dr. A. Zeevi) and/or BDNF (5 ng/ml, Promega, Madison, Wis.).
In an attempt to identify the cell phenotype that is most affected by different treatments, the neuroglial cultures were immunostained for the neuronal marker MAP-2 and the astrocytic marker GFAP. After 7 days of treatment, cultures were washed with PBS and PBS with 0.05% Tween 20 (Sigma), fixed with 4% paraformaldehyde for 30 min and then incubated for 30 min with PBS with 0.2% BSA and 0.1% Triton X (Sigma). Without washing, cultures were incubated overnight at 4° C. with the primary antibodies mouse anti-MAP-2(1:500, Stemberger Monoclonals Inc., Baltimore, Md.) and rabbit anti-GFAP (1:100, Dako, Capinteria, Calif.). After thorough washing with PBS+0.05% Tween 20, a secondary antibody (FITC-conjugated goat anti- mouse and FITC- conjugated goat anti- rabbit) was applied for 2 hours (1:200, Jackson Immuno, West Grove, Pa.). All antibodies were diluted in common antibody diluent (ScyTek, Logan, Utah). RNase A (10 μg/ml; Sigma) was added during the secondary antibody incubation (20 min), followed by the nuclear stain propidium iodide (5 μg/ml, Sigma). Propidium iodide was used to allow quantification of cell numbers for each treatment condition, using LCM and ImageSpace software as described below. Coverslips were then washed and mounted on glass slides (Fisher) using gelvatol fluorescence mounting medium.
A quantitative assessment of the results (i.e., the numbers of cell nuclei stained with propidium iodide and areas covered by immunofluorescent marker staining) using laser confocal microscopy and ImageSpace software (Molecular Dynamics, Sunnyvale, Calif.) was carried out as follows: six randomly chosen fields were analyzed per coverslip (well). The Argon/Krypton laser confocal microscope 40× objective with oil immersion lens (Model 2001, Molecular Dynamics) was used. Images of 512×512 pixels were collected at a pixel size of […]. Vertical sections were acquired in order to define vertical borders for the collection of Z-series. The step size between adjacent sections was […]. FITC was excited with a wavelength of 488 nm and collected with a 530DF30 filter. Propidium iodide was excited with a wavelength of 568 nm and collected with a 590DFLP filter. […]

Row | Molecule | toxic effects (higher concentrations of FK506) | neurite outgrowth / neuronal processes extension | enhancement of neuronal differentiation (5 ng/ml, 7 days of treatment) | MAP-2 surface/cell number ratio (5 ng/ml, 7 days of treatment starting at DIC 12, vs control) | GFAP surface/cell number ratio (GFAP expression) (7 days of treatment, vs control) | number of neurons (BDNF: NeuN immunostaining, unpublished observations)
1 | C=CC[C@@H]1/C=C(\C)C[C@H](C)C[C@H](OC)[C@H]2O[C@@](O)(C(=O)C(=O)N3CCCC[C@H]3C(=O)O[C@H](/C(C)=C/[C@@H]3CC[C@@H](O)[C@H](OC)C3)[C@H](C)[C@@H](O)CC1=O)[C@H](C)C[C@@H]2OC [FK506, reference compound] | did not appear to exert toxic effects | – | – | – | – | –
2 | B1 | – | tends to increase | not significant | not significantly different from control | decreased | modestly increasing
